Results published in the RNAGym collection of RNA variant scans (doi:10.1021/acssynbio.7b00057).

B1: Pistol ribozyme (parent)
chain: GGGUCGUUGUUCCAUAAUCGCGUGGAUAUGGCACGCAAGUUUCUACCGGGCACCGUAAAUGUCCGACUGGAGCCGUUCGGGCGGCUAUAAACAGACCUCAGGCCCGAAGCGUGGCGGCACCUGCCGCCGGUGGUAAAAAAGAUCGGAAGAGCACACGUCU

Variants of: B1
Test: aptazyme ON/OFF ratio, guanine; higher = stronger switching; co-transcriptional cleavage with and without guanine

Variant	aptazyme ON/OFF ratio
GGGUCGGAAAAGGAUAAUCGCGUGGAUAUGGCACGCAAGUUUCUACCGGGCACCGUAAAUGUCCGACUGGAGCCGUUCGGGCGGCUAUAAACAGACCUCAGGCCCGAAGCGUGGCGGCACCUGCCGCCGGUGGUAAAAAAGAUCGGAAGAGCACACGUCU [U7G U8A G9A U10A U11A C12G C13G]	1.15
GGGUCGGAAAAGAAUAAUCGCGUGGAUAUGGCACGCAAGUUUCUACCGGGCACCGUAAAUGUCCGACUGGAGCCGUUCGGGCGGCUAUAAACAGACCUCAGGCCCGAAGCGUGGCGGCACCUGCCGCCGGUGGUAAAAAAGAUCGGAAGAGCACACGUCU [U7G U8A G9A U10A U11A C12G C13A]	1.1
GGGUCGGAAAAGUAUAAUCGCGUGGAUAUGGCACGCAAGUUUCUACCGGGCACCGUAAAUGUCCGACUGGAGCCGUUCGGGCGGCUAUAAACAGACCUCAGGCCCGAAGCGUGGCGGCACCUGCCGCCGGUGGUAAAAAAGAUCGGAAGAGCACACGUCU [U7G U8A G9A U10A U11A C12G C13U]	1.14
GGGUCGGAAAAAGAUAAUCGCGUGGAUAUGGCACGCAAGUUUCUACCGGGCACCGUAAAUGUCCGACUGGAGCCGUUCGGGCGGCUAUAAACAGACCUCAGGCCCGAAGCGUGGCGGCACCUGCCGCCGGUGGUAAAAAAGAUCGGAAGAGCACACGUCU [U7G U8A G9A U10A U11A C12A C13G]	1.04
GGGUCGGAAAAAUAUAAUCGCGUGGAUAUGGCACGCAAGUUUCUACCGGGCACCGUAAAUGUCCGACUGGAGCCGUUCGGGCGGCUAUAAACAGACCUCAGGCCCGAAGCGUGGCGGCACCUGCCGCCGGUGGUAAAAAAGAUCGGAAGAGCACACGUCU [U7G U8A G9A U10A U11A C12A C13U]	1.12
GGGUCGGAAAAAAAUAAUCGCGUGGAUAUGGCACGCAAGUUUCUACCGGGCACCGUAAAUGUCCGACUGGAGCCGUUCGGGCGGCUAUAAACAGACCUCAGGCCCGAAGCGUGGCGGCACCUGCCGCCGGUGGUAAAAAAGAUCGGAAGAGCACACGUCU [U7G U8A G9A U10A U11A C12A C13A]	1.09
GGGUCGGAAAUCCAUAAUCGCGUGGAUAUGGCACGCAAGUUUCUACCGGGCACCGUAAAUGUCCGACUGGAGCCGUUCGGGCGGCUAUAAACAGACCUCAGGCCCGAAGCGUGGCGGCACCUGCCGCCGGUGGUAAAAAAGAUCGGAAGAGCACACGUCU [U7G U8A G9A U10A]	1.77
GGGUCGGAAAAACAUAAUCGCGUGGAUAUGGCACGCAAGUUUCUACCGGGCACCGUAAAUGUCCGACUGGAGCCGUUCGGGCGGCUAUAAACAGACCUCAGGCCCGAAGCGUGGCGGCACCUGCCGCCGGUGGUAAAAAAGAUCGGAAGAGCACACGUCU [U7G U8A G9A U10A U11A C12A]	1.18
GGGUCGGAAAAUCAUAAUCGCGUGGAUAUGGCACGCAAGUUUCUACCGGGCACCGUAAAUGUCCGACUGGAGCCGUUCGGGCGGCUAUAAACAGACCUCAGGCCCGAAGCGUGGCGGCACCUGCCGCCGGUGGUAAAAAAGAUCGGAAGAGCACACGUCU [U7G U8A G9A U10A U11A C12U]	1.18
GGGUCGGAAAAGCAUAAUCGCGUGGAUAUGGCACGCAAGUUUCUACCGGGCACCGUAAAUGUCCGACUGGAGCCGUUCGGGCGGCUAUAAACAGACCUCAGGCCCGAAGCGUGGCGGCACCUGCCGCCGGUGGUAAAAAAGAUCGGAAGAGCACACGUCU [U7G U8A G9A U10A U11A C12G]	1.26
GGGUCGGAAAAUAAUAAUCGCGUGGAUAUGGCACGCAAGUUUCUACCGGGCACCGUAAAUGUCCGACUGGAGCCGUUCGGGCGGCUAUAAACAGACCUCAGGCCCGAAGCGUGGCGGCACCUGCCGCCGGUGGUAAAAAAGAUCGGAAGAGCACACGUCU [U7G U8A G9A U10A U11A C12U C13A]	1.15
GGGUCGGAAAAUUAUAAUCGCGUGGAUAUGGCACGCAAGUUUCUACCGGGCACCGUAAAUGUCCGACUGGAGCCGUUCGGGCGGCUAUAAACAGACCUCAGGCCCGAAGCGUGGCGGCACCUGCCGCCGGUGGUAAAAAAGAUCGGAAGAGCACACGUCU [U7G U8A G9A U10A U11A C12U C13U]	1.19
GGGUCGGAAAAUGAUAAUCGCGUGGAUAUGGCACGCAAGUUUCUACCGGGCACCGUAAAUGUCCGACUGGAGCCGUUCGGGCGGCUAUAAACAGACCUCAGGCCCGAAGCGUGGCGGCACCUGCCGCCGGUGGUAAAAAAGAUCGGAAGAGCACACGUCU [U7G U8A G9A U10A U11A C12U C13G]	1.12
GGGUCGGAAAUCAAUAAUCGCGUGGAUAUGGCACGCAAGUUUCUACCGGGCACCGUAAAUGUCCGACUGGAGCCGUUCGGGCGGCUAUAAACAGACCUCAGGCCCGAAGCGUGGCGGCACCUGCCGCCGGUGGUAAAAAAGAUCGGAAGAGCACACGUCU [U7G U8A G9A U10A C13A]	1.19
GGGUCGGAAAUCGAUAAUCGCGUGGAUAUGGCACGCAAGUUUCUACCGGGCACCGUAAAUGUCCGACUGGAGCCGUUCGGGCGGCUAUAAACAGACCUCAGGCCCGAAGCGUGGCGGCACCUGCCGCCGGUGGUAAAAAAGAUCGGAAGAGCACACGUCU [U7G U8A G9A U10A C13G]	1.1
GGGUCGGAAAUCUAUAAUCGCGUGGAUAUGGCACGCAAGUUUCUACCGGGCACCGUAAAUGUCCGACUGGAGCCGUUCGGGCGGCUAUAAACAGACCUCAGGCCCGAAGCGUGGCGGCACCUGCCGCCGGUGGUAAAAAAGAUCGGAAGAGCACACGUCU [U7G U8A G9A U10A C13U]	1.11
GGGUCGGAAUUCUAUAAUCGCGUGGAUAUGGCACGCAAGUUUCUACCGGGCACCGUAAAUGUCCGACUGGAGCCGUUCGGGCGGCUAUAAACAGACCUCAGGCCCGAAGCGUGGCGGCACCUGCCGCCGGUGGUAAAAAAGAUCGGAAGAGCACACGUCU [U7G U8A G9A C13U]	1.23
GGGUCGGAAUUCGAUAAUCGCGUGGAUAUGGCACGCAAGUUUCUACCGGGCACCGUAAAUGUCCGACUGGAGCCGUUCGGGCGGCUAUAAACAGACCUCAGGCCCGAAGCGUGGCGGCACCUGCCGCCGGUGGUAAAAAAGAUCGGAAGAGCACACGUCU [U7G U8A G9A C13G]	1.09
